# Tests used:
# [1] = target: T1, KATP channel (SUR1/KATP complex) in insulinoma HIT cells (Cricetus cricetus, UniProt Q09427); experiment: KATP whole-cell patch-clamp currents in insulinoma HIT cells; assay type: cell-based
# T1 construct: in HIT cells on the endogenous KATP whole-cell currents; endogenous in cells; host or cells: insulinoma HIT cells
# Experimental: Representative KATP whole-cell patch-clamp currents recorded from the control and syntaxin-1A overespressing HIT cells are shown in FIG. 6A. Cells were stimulated by voltage steps from −140 to 0 mV from a holding potential of −50 mV. […] All currents were recorded 15 min after the formation of the whole-cell configuration when a cell interior exchanged with the pipette solution containing low (0.3 mM) ATP concentration. […] An asterisk indicates the first minutes of recording after obtaining the whole-cell configuration. Pipette solution contains 3 mM MgADP and only 0.3 mM ATP. […] Currents were measured at −120 mV, and normalized to the maximal current (Imax).
# [2] = test system: NBF-1 and NBF-2 of SUR-1; experiment: GST pull-down binding of Syn-1A or SNAP-25 with GST-NBF-1 / GST-NBF-2 of SUR-1, Western blot; details: 375 pmol protein each, 4° C., 2 hours, glutathione beads
# Experimental: (§1) GST (control) or GST-NBF-1 or GST-NBF-2 (375 pmol protein)of SUR-1 or SUR-2A, bound to glutathione beads, was incubated with Syn-1A or SNAP-25 (375 pmol protein) in 25 mM Hepes (pH 7.4) with 50 mM NaCl, 0.1% gelatin, 0.1% Triton X-100, 0.1% BSA and 0.2% β-mercaptoethanol at 4° C. for 2 hours. Following washing the beads three times with 20 mM Hepes(pH 7.4) with 150 mM KoAc, 1 mM EDTA, 1 mM MgCl2, 5% glycerol and 0.1% Triton X-100, the samples were subjected to 15% SDS-PAGE, transferred to nitrocellulose membrane and probed with antibody against Syn-1A (1:2000) or SNAP-25 (1:1000).
# [3] = test system: NBF-1 and NBF-2 of SUR-2A; experiment: GST pull-down binding of Syn-1A or SNAP-25 with GST-NBF-1 / GST-NBF-2 of SUR-2A, Western blot; details: 375 pmol protein each, 4° C., 2 hours, glutathione beads
# Experimental: as §1
# [4] = target: T2, KATP channel in rat pancreatic beta cells (Rattus norvegicus, UniProt Q09429); experiment: KATP whole-cell patch-clamp currents in freshly isolated rat pancreatic beta cells; assay type: cell-based
# T2 construct: recorded from the freshly isolated rat pancreatic beta cells; endogenous in cells; host or cells: freshly isolated rat pancreatic beta cells
# Experimental: Representative KATP whole-cell patch-clamp currents recorded from the freshly isolated rat pancreatic beta cells in the absence (control) and presence of recombinant syntaxin-1A protein are shown in FIG. 7A. Cells were stimulated by voltage steps from −140 to −20 mV (or 0 mV) from a holding potential of −50 mV. […] Recombinant syntaxin-1A (10^−3 M) was dialyzed into the cell interior through the patch pipette. […] All currents were recorded 15 min after the formation of the whole-cell configuration when a cell interior exchanged with the pipette solution containing low (0.3 mM) ATP concentration that under control conditions opens the KATP channel.
# T1 sequence (Q09427 whole entry, one chain of several): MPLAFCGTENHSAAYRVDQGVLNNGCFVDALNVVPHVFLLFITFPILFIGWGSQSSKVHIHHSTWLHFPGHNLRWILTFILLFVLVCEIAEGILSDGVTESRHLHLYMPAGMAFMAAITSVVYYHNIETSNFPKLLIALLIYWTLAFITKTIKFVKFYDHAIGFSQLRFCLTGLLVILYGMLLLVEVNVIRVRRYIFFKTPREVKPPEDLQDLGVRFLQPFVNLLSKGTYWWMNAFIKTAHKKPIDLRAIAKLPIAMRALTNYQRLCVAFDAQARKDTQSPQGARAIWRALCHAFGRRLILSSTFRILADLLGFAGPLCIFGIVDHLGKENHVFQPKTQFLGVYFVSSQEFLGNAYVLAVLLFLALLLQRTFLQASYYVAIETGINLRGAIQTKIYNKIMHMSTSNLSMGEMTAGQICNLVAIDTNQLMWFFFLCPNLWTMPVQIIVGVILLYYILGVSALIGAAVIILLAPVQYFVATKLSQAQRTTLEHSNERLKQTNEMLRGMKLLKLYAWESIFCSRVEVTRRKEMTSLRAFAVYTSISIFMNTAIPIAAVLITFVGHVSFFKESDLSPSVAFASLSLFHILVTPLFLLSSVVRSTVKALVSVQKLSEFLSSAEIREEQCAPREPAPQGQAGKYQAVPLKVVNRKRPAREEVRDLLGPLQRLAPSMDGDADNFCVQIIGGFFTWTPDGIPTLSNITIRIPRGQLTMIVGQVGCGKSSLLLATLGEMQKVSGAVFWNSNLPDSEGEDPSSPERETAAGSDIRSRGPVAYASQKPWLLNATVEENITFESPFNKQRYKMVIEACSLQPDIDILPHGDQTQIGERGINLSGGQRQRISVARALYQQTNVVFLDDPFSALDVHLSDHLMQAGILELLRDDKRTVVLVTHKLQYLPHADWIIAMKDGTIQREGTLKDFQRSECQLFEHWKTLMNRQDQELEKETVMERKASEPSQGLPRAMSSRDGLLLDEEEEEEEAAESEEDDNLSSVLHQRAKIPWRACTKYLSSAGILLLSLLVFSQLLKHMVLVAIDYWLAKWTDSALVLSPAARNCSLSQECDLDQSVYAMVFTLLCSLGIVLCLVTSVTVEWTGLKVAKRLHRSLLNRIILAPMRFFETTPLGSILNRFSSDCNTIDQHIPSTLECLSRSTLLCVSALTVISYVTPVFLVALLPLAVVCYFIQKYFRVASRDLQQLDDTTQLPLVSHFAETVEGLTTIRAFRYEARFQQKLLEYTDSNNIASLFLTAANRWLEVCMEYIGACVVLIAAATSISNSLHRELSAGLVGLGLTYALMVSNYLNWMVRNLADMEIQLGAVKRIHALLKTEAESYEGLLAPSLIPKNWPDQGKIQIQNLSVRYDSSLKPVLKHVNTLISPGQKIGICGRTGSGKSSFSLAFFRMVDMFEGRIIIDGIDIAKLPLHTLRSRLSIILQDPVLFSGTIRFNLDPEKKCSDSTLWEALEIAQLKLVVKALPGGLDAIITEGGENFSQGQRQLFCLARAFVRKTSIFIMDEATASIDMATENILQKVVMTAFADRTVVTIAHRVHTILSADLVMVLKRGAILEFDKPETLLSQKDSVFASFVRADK
# T2 sequence (Q09429 whole entry): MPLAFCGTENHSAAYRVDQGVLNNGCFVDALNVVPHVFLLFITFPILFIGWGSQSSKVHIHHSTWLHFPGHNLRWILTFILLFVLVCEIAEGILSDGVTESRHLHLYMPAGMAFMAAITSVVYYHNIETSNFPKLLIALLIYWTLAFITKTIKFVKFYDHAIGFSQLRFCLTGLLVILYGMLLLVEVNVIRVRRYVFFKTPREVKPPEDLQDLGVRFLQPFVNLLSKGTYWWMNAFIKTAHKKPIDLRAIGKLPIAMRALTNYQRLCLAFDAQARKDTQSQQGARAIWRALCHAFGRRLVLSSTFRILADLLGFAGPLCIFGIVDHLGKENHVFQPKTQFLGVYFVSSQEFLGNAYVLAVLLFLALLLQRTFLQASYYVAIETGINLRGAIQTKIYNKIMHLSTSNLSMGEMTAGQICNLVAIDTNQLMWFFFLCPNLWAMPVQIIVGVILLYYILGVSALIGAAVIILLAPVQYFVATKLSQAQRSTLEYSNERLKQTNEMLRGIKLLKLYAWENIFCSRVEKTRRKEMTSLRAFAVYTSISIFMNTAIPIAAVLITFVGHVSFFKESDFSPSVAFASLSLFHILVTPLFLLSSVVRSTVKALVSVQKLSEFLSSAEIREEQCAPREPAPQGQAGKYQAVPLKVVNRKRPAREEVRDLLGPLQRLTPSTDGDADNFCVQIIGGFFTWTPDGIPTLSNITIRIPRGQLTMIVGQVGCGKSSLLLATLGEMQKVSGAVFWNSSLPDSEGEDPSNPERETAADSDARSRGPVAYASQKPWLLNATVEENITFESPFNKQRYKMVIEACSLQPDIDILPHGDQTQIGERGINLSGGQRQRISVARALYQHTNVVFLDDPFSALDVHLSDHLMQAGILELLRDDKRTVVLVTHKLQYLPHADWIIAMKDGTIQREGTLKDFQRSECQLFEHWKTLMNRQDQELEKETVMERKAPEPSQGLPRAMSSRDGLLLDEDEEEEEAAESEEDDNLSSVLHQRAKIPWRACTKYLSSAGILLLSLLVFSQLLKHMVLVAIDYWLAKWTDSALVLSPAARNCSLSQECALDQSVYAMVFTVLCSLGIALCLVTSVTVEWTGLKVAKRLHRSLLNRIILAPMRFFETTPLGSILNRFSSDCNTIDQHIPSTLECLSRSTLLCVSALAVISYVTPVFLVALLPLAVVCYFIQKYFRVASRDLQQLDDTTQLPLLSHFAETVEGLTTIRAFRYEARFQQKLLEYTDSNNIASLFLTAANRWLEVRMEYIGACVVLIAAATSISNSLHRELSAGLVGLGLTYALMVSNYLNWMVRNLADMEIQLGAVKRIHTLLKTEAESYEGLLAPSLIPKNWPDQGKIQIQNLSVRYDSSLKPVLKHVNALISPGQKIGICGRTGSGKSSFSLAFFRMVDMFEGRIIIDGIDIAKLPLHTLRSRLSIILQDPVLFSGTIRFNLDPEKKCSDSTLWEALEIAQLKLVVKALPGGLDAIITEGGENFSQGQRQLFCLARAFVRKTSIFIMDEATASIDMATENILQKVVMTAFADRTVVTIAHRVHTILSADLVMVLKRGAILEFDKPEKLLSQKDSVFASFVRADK
# T2 sequence (P70673 whole entry partner): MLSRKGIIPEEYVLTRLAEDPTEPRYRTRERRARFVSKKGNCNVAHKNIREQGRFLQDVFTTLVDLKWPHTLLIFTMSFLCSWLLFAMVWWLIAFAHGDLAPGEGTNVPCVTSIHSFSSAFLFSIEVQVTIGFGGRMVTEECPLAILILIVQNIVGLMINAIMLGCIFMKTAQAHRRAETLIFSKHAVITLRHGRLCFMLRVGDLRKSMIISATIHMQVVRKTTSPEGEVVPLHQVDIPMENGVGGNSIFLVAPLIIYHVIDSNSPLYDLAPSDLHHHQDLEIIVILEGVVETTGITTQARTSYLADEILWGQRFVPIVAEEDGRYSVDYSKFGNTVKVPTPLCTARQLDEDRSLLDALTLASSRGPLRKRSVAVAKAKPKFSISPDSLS
substance,measurement,setting,value
MgADP [reference compound],reversal of syntaxin-1A inhibited KATP current at t=15 min compared with t=0 min,"[1]; MgADP 3 mM in pipette, 0.3 mM ATP, syntaxin-1A overexpressing HIT cells, measured at −120 mV",46%
syntaxin-1A: endogenous SNARE superfamily protein; recombinant rat syntaxin-1A (SEQ ID NO: 1) or overexpressed in cells,binding (pull down) to NBF-1 and NBF-2 of SUR1,[2],directly ‘pulled’ down
same,binding (pull down) to NBF-1 and NBF-2 of SUR2A,[3],directly ‘pulled’ down
same,KATP whole-cell currents versus control cells,"[1]; HIT cells transfected with (overexpressing) syntaxin-1A, pipette 0.3 mM ATP, 15 min",reduced compared with the control cells
same,KATP whole-cell current at t=15 min relative to t=0 min,"[1]; syntaxin-1A overexpressing HIT cells (>3 fold by Western), pipette 0.3 mM ATP, measured at −140 mV",remained unchanged
same,KATP whole-cell currents versus control beta cells,"[4]; recombinant syntaxin-1A 10^−3 M dialyzed through patch pipette, 0.3 mM ATP, 15 min",reduced compared with the control beta cells
same,inhibitory effect on mean KATP whole cell-currents (channel activity),"[4]; recombinant syntaxin-1A, 0.3 mM ATP in pipette, measured at −120 mV, recorded for 15 minutes",strongly inhibits

# Reference: US7267959B2, “Drug target within the sulfonylurea receptor” (priority 2001, dated 2007)
